Here are results for one molecule from patent US11110182B2, “Multifunctional RNA nanoparticles and methods for treating cancer and therapeutic resistant cancer” (University of Cincinnati, priority 2016, dated 2021).

The data set in a line: Hydrodynamic size by dynamic light scattering (DLS). The data set is classed as physicochemical. Here is the method: Cell culture. Human breast cancer luciferase-overexpressing BT474 and MDA-MB-231 cells were maintained in DMEM medium (Hyclone, Thermo Scientific) supplemented with 10% fetal bovine serum (FBS, Sigma) and 1% penicillin/streptomycin (Corning) at 37° C. in a humidified atmosphere with 5% CO2.^53 • Generation of pRNA nanoparticles. The two strands of pRNA were synthesized with the DNA templates, which were amplified with overlapping primers (Sigma) by PCR methods, using a T7 promoter-controlled in vitro RNA transcription system as previously described^33 (Table 1). […] The hydrodynamic diameter and Tm value of pRNA nanoparticles were determined using dynamic light scattering and TGGE assay, respectively, as previously described.^54 The AFM imaging of the pRNA nanoparticles was performed at the University of Nebraska Medical Center imaging facility as previously reported.^55 Briefly, the pRNA nanoparticles (5 μL) were deposited on APS modified mica ^56 for a total of 2 min of incubation time. […] After washing three times with PBS, the cellular uptake of pRNAs was determined using a BD LSRFortessa™ flow cytometer. • Real-time PCR. […] The expression of MED 1, TFF1, c-Myc, cyclinD1 and MMP-9 was analyzed using GAPDH as the internal reference. • Western blot analyses. […]

B1: pRNA-HER2apt-siMED1: 3-WJ pRNA nanoparticle bearing a HER2-targeting RNA aptamer and two different MED1 siRNAs; strands p1 SEQ ID NO: 3, p2 SEQ ID NO: 4 (nucleic acid)
chain 1: GGACAGUGAAAGUGAGUCAAAGGAUCAAUCAUGGCCAAAGAUGUUACUUUGAGAGCCUU
chain 2: GGCUCUCAAAGUAACAUCUAAGGCCAUGUGUAUGUGGGGGGAGGACGAUGCGGUCUGCUGUGCUUGAUAUGCCCCAGACGACUCGCCCCCCACAUACUUUGUUGAUCCAAUGACUCACUUUCACUGUCCUU
modifications: 2'-F modification; third strand may lack entry; pRNA-HER2apt-siMED1, p1; pRNA-HER2apt-siMED1, p2
B1 showed a hydrodynamic size of 8.68±1.87 nm.
